In patent US20120052092A1 (published 2012) one finds Kd data, which are given here for six molecules.

What is called Kd is the free concentration of one partner at which half of the binding sites on the other are occupied at equilibrium, for simple one-to-one binding. Read a low Kd as tighter binding.

The target in experiment [1] is T1, Neisseria gonorrhoeae fHbp homologue (NGO0033) (Neisseria gonorrhoeae).
T1 chain: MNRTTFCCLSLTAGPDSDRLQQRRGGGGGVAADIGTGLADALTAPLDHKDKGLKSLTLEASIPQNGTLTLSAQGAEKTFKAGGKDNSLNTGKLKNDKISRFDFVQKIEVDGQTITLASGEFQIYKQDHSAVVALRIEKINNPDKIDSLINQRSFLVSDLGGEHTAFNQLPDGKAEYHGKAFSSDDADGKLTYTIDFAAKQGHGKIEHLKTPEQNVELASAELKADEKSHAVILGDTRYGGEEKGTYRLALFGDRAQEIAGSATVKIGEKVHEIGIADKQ
In words: SPR. (In general: In SPR one partner is held on a chip, and binding of the other changes the refractive index at the surface.)

The target of experiment [2] is T2, factor H binding protein (wild type, variant 1) (UniProt E6MV22 20-274).
T2 chain: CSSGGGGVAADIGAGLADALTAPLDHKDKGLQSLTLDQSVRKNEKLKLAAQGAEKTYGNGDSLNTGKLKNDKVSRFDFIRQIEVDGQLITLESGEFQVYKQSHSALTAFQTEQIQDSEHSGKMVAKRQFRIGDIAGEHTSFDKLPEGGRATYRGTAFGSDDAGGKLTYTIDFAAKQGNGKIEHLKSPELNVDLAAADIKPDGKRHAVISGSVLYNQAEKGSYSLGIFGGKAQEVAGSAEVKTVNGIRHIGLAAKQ
In words: SPR; 402His.

Experiment [3] deals with T2, factor H binding protein (wild type, …). The experiment can be described thus: SPR.
Experiment [4] shares this target. In words: SPR.
Experiment [5] deals with fHbp Variant 2 (Neisseria meningitidis). In words: SPR.
The target of experiment [6] is fHbp Variant 3 (Neisseria meningitidis). The experiment can be described thus: SPR.
Experiment [7] concerns the target 6 7Y 8. The experiment can be described thus: SPR; 402Tyr.
The target of experiment [8] is fH678 Tyr402. The experiment can be described thus: SPR; 402Tyr.
Experiment [9] addresses 6 7H 8. The experiment can be described thus: SPR; 402His.
The target in experiment [10] is fH678 His 402. The experiment can be described thus: SPR; 402His.
In experiment [11] the target is FH67 N339E M340S. The experiment can be described thus: SPR.
The target in experiment [12] is fHbp variant 2 (Neisseria meningitidis). In words: SPR; sensorgram.
The target of experiment [13] is fHbp variant 3 (Neisseria meningitidis). The experiment can be described thus: SPR; sensorgram.

B1: fH67 (CCPs 6 and 7 of factor H) (other)
chain: TLKPCDYPDIKHGGLYHENMRRPYFPVAVGKYYSYYCDEHFETPSGSYWDHIHCTQDGWSPAVPCLRKCYFPYLENGYNQNYGRKFVQGKSIDVACHPGYALPKAQTTVTCMENGWSPTPRCI
B1: the Kd turned out to be 6000 nM in [1], 4 nM in experiment [2], 5 nM in [3] and 4 nM in [4].

B2: FH67 (other)
chain: TLKPCDYPDIKHGGLYHENMRRPYFPVAVGKYYSYYCDEHFETPSGSYWDHIHCTQDGWSPAVPCLRKCYFPYLENGYNQNYGRKFVQGKSIDVACHPGYALPKAQTTVTCMENGWSPTPRCI
B2: the Kd was found to be 2 nM in [5] and 3 nM in [6].

B3: fHbp (other)
chain: CSSGGGGVAADIGAGLADALTAPLDHKDKGLQSLTLDQSVRKNEKLKLAAQGAEKTYGNGDSLNTGKLKNDKVSRFDFIRQIEVDGQLITLESGEFQVYKQSHSALTAFQTEQIQDSEHSGKMVAKRQFRIGDIAGEHTSFDKLPEGGRATYRGTAFGSDDAGGKLTYTIDFAAKQGNGKIEHLKSPELNVDLAAADIKPDGKRHAVISGSVLYNQAEKGSYSLGIFGGKAQEVAGSAEVKTVNGIRHIGLAAKQ
For the molecule B3, the Kd was 7 nM in experiment [7], 7.2 nM in experiment [8], 6 nM in experiment [9] and 5.7 nM in [10].

B4: fHbp Variant 1 (other)
chain: CSSGGGGVAADIGAGLADALTAPLDHKDKGLQSLTLDQSVRKNEKLKLAAQGAEKTYGNGDSLNTGKLKNDKVSRFDFIRQIEVDGQLITLESGEFQVYKQSHSALTAFQTEQIQDSEHSGKMVAKRQFRIGDIAGEHTSFDKLPEGGRATYRGTAFGSDDAGGKLTYTIDFAAKQGNGKIEHLKSPELNVDLAAADIKPDGKRHAVISGSVLYNQAEKGSYSLGIFGGKAQEVAGSAEVKTVNGIRHIGLAAKQ
For the molecule B4, the Kd in [11] was 67 nM.

B5: FH678 (other)
chain: TLKPCDYPDIKHGGLYHENMRRPYFPVAVGKYYSYYCDEHFETPSGSYWDHIHCTQDGWSPAVPCLRKCYFPYLENGYNQNYGRKFVQGKSIDVACHPGYALPKAQTTVTCMENGWSPTPRCIRVKTCSKSSIDIENGFISESQYTYALKEKAKYQCKLGYVTADGETSGSITCGKDGWSAQPTCIKSC
For B5, the Kd in experiment [5] worked out at 2 nM; in experiment [6], 3 nM; in [12], 1.51 nM; in experiment [13] it was 3.43 nM.

B6: Factor H Domains 5, 6 and 7 (other)
chain: KSCDNPYIPNGDYSPLRIKHRTGDEITYQCRNGFYPATRGNTAKCTSTGWIPAPRCTLKPCDYPDIKHGGLYHENMRRPYFPVAVGKYYSYYCDEHFETPSGSYWDHIHCTQDGWSPAVPCLRKCYFPYLENGYNQNYGRKFVQGKSIDVACHPGYALPKAQTTVTCMENGWSPTPRCI
With B6, the values for the Kd in experiment [2] and in experiment [4] were 6 nM and 6.1 nM, respectively.
